Experimental data taken from the supplement of paper PMC7125110.
± gives the standard error. This sample holds only a part of the variants without activity.

B1: glmS ribozyme (parent)
chain: AUAAAAGCGCCAGAACUACAGAAAUGUAGUUGACGAGGAGGAGGUUUAUCGAAUUUUCGGCGGAUGCCUCCAAA

Assays:
Settings in all cases: with glucosamine-6-phosphate
glucosamine-6-phosphate [1] = variants of: B1; test: self-cleavage kobs at 640 uM GlcN6P; higher = faster cleavage; RNA array
Method in brief: (§1)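 Barcoded ribozyme variants were transcribed in situ on sequenced MiSeq chips by E. coli RNA polymerase. At 37 °C, a hybridised Cy3 probe tracked them while glucosamine-6-phosphate (40 μM to 10 mM) in HEPES/KCl/Mg(OAc)2 buffer flowed in and tiles were imaged over ~14 h. Per-tile medians of signals normalised to baseline and to non-cleaving reference variants were fit to one- or two-exponential decays, giving kobs. kcat and KM came from weighted Michaelis–Menten fits across concentrations.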

glucosamine-6-phosphate [2] = variants of: B1; test: self-cleavage kobs at 2500 uM GlcN6P; higher = faster cleavage; RNA array
Method in brief: as §1

glucosamine-6-phosphate [3] = variants of: B1; test: self-cleavage kobs at 10000 uM GlcN6P; higher = faster cleavage; RNA array
Method in brief: as §1

Variant | self-cleavage kobs at 640 uM GlcN6P (glucosamine-6-phosphate [1]) [s⁻¹] | self-cleavage kobs at 2500 uM GlcN6P (glucosamine-6-phosphate [2]) [s⁻¹] | self-cleavage kobs at 10000 uM GlcN6P (glucosamine-6-phosphate [3]) [s⁻¹]
AUAAAAGCGCCAUAACUACAGAAAUGUAGUUGACGAGGAGGAGGUUUAUGGAAUUUUCGGCGGAUGGCUCCAAA [G13U C50G C67G] | 0.000305 ± 0.00014 | 7.52e-05 ± 1.5e-05 | –
AUAAAAUCGCCAGAACUACAGAAAUGUAGUUGACGAGGAGCAGGUUUAUCGAAUUUUAGGCGGAUGCCUCCAAA [G7U G41C C58A] | < 1e-05 | < 1e-05 | –
AUAAAAGCUCCAGAACUACAGAAAUGUAGUUGACGAGGAGGAGCUUUAUCGAAUUUUAGGCGGAUGCCUCCAAA [G9U G44C C58A] | < 1e-05 | – | –
AUAAAAGCGCCAGAUCUACAGAAAUGUAGUUGACGAGGAGGAGGUUUAUCGAAUUUUUGGCGGAUGCCACCAAA [A15U C58U U69A] | 0.000113 ± 2.4e-05 | 0.000115 ± 3.3e-05 | –
AUAAAAGCGCGAGGACUACAGAAAUGUAGUUGAAGAGGAGUAGGUUUACCGAAUUUUCGGCGGAUGCCUCCAAA [C11G A14G C34A G41U U49C] | < 1e-05 | – | –
AUAAAAGCGCCAGAACUACAGAAAUGUAGUUGACGAGGAUGAGGUUUAUAGAAUUUUCGGCGGAUGGCUCCAAA [G40U C50A C67G] | < 1e-05 | – | –
AUAAAAGCGCCAAAACUACAGAAAUGUAGUUGACGAGGAGGAGCUUUAUCGAAGUUUCGGCGGAUGCCUCCAAA [G13A G44C U54G] | < 1e-05 | – | –
AUAAAAGCCCCAGAACUACAGAAAUGUAGUUGACGAGGAGUAGCUUUAUCGAAUUUUCGGCGGAUGCCUCCAAA [G9C G41U G44C] | < 1e-05 | – | –
AUAAAAGCGACAGAACUACAGAAAUGUAGUUGACGAGGAGCAGGUUUUUCGAAUUUUCGGCGGAUGCCUCCAAA [C10A G41C A48U] | < 1e-05 | < 1e-05 | –
AUAAAAGCGCCAGAACUACAGAAAUGUAGUUGACGAGGAGGCGGUUUACCGAAUUUUUGGCGGAUGCCUCCAAA [A42C U49C C58U] | < 1e-05 | < 1e-05 | –
AUAAAAGCGCCAGAACUACAGAAAUGUAGUUGACGAGGAAGGGGUAUAUCGAAUUUUCGGCGGAUGCCUCCAAA [G40A A42G U46A] | 0.000129 ± 4.5e-05 | 0.000599 ± 0.0003 | 0.00096 ± 0.00023
AUAAAAGCGCCAGCACUACAGAAAUGUAGUUGACGAGGAGGGAGUUUAUCGAAUUUUCGGCGGAUGCCCUCAAA [A14C A42G G43A U69C C70U] | < 1e-05 | – | –
AUAAAAGCGCCAGAACUACAGAAAUGUAGGUGAUAAGGAGGAGGUUUAUCGAAUUUUCGGCGGAUGCAUCCAAA [U30G C34U G35A C68A] | 0.00169 ± 0.00067 | – | –
AUAAAAGUGCCCGAACUACAGAAAUGUAGUUGACGAGGAGGAGGUUUAACGAAUUUUCGGCGGAUGCCUCCAAA [C8U A12C U49A] | < 1e-05 | – | –
AUAAAAGGGCCAGAACUACAGAAAUGUAGUUGACGAGGAGGAGGUUUAUCGAAUUUUCUGCGGAUUCCUCCAAA [C8G G59U G66U] | < 1e-05 | – | –
AUAAAAGCGCCAGAACUACAGAAAUGUAGUUGACGAGGAGGAGGUUUAUUGAAUUUUCGGCGGAUGACUCCAAA [C50U C67A] | 6.32e-05 ± 2.1e-05 | – | –
AUAAAAGCGCCAGAACUACAGAAAUGUAGUUGACGAGGAGGAGGUUUAUCGAUUCUUCGGCGGAAGCCUCCAAA [A53U U55C U65A] | 0.00055 ± 9.7e-05 | 0.000947 ± 0.00018 | 0.00137 ± 0.00021
AUAAAAGUGCCAGAACUACAGAAAUGUAAUUGACGAAGUGGAGGUUUAUCGAAUUUUCGGUGGCUGCCUCCAAA [C8U G29A G37A A39U C61U A64C] | < 1e-05 | – | –
AUAAAAGCGCCAGAACUACAGAAAUGUAGUUGACGAGGAAGAGGUUUAUCAAAUUUUCAGCGGAUGCCUCCAAA [G40A G51A G59A] | < 1e-05 | – | –
AUAAAAGCGCCAGAACUACAGAAAUGUAGUGGACGAGGAGUAGGUUGAUCGAAUUUUCGGCGGAUGCCUCCAAA [U31G G41U U47G] | 7.13e-05 ± 2e-05 | 0.000232 ± 5.7e-05 | –
AUAAAAGCGCCAUAACUACAGAAAUGUAGUCGACGAGGAGGAGGUUUAUCGAAUUUUCGGCAGAUGCCUCCAAA [G13U U31C G62A] | < 1e-05 | – | –
AUAAAAGCGCCAGAACUACAGAAAUGUAGUUGACGAGGAGGCGGUUUAUCGAAUUUUCGGGGGAUGCCUACAAA [A42C C61G C70A] | < 1e-05 | < 1e-05 | < 1e-05
AUAAAACCGCCAGAACUACAGAAAUGUAGUUGACGAGGAGGUGGUUUAUCGAAUUUUCGGCGGAUGCCUCCAAA [G7C A42U] | < 1e-05 | – | –
AUAAAAGCGCCAGAACUACAGAAAUGUAGUUGACGAGUAGGAGGUUUAUCGAAUUUUCGGCGGAUGUCUUCAAA [G38U C67U C70U] | 0.000296 ± 0.00014 | – | –
AUAAAAGCGCCAGAACUACAGAAAUGUAGUUGACGAGGACGAGGUUUAUUGAAUUUUCGCCGGAUGCCUCCAAA [G40C C50U G60C] | < 1e-05 | – | < 1e-05

Variant | self-cleavage kobs at 640 uM GlcN6P (glucosamine-6-phosphate [1]) [s⁻¹] | self-cleavage kobs at 2500 uM GlcN6P (glucosamine-6-phosphate [2]) [s⁻¹] | self-cleavage kobs at 10000 uM GlcN6P (glucosamine-6-phosphate [3]) [s⁻¹]
AUAAAAGCGCCAGAACUACAGAAAUGUAGUUGACGAGGAGGAGGUUGAUCGAAUUUUCGGCGUAUGCGUCCAAA [U47G G63U C68G] | 6.95e-05 ± 3.1e-05 | – | –
AUAAAAGCUCCAGAACUACAGAAAUGUAGUUGACGAGGAGGAGGUUUAUCGAAUUUUCGGCCGAUGUCUCCAAA [G9U G62C C67U] | < 1e-05 | < 1e-05 | –
AUAAAAGCGCCAGAACUACAGAAAUGUAGUUGACGAAGAGGAGGUUUAUCGAAUCGUCGGCGGAUGCCUCCAAA [G37A U55C U56G] | 0.000171 ± 5.1e-05 | – | –
AUAAAAGCGCCAGAACUACAGAAAUGUAGUUGACGAGGAGGAGGUUUAUCGAAUUUUCAUCGGAUGUCUCCAAA [G59A G60U C67U] | < 1e-05 | – | –
AUAAAAGCGCCAGCACUACAGAAAUGUAGUUGACGAGGAGGAGAUUUAUCGAAUUUUCGGCGGUUGCCUCCAAA [A14C G44A A64U] | < 1e-05 | – | –
AUAAAAGCGCCAGAACUACAGAAAUGUAGUUGACGAGGAGGAGGUUUAUCGAGAUUUCGGCGUAUGCCUCCAAA [A53G U54A G63U] | < 1e-05 | < 1e-05 | –
AUAAAAGCGCCAGAACUACAGAAAUGUAGUUGACAAGGAGGAGGUUUCUCGAAAUUUCGGCGGAUGCCUACAAA [G35A A48C U54A C70A] | < 1e-05 | – | < 1e-05
AUAAAAGCGCCAGAACUACAGAAAUGUAGUUGAAGAGGCGGAGGUUUAUCGAAUUUUCCGGGGAUGCCUCCAAA [C34A A39C G59C C61G] | < 1e-05 | < 1e-05 | –
AUAAAAGCGCCCGAACUACAGAAAUGUAGUUGACGAGCAGGAGGUUUACAGAAUUUUCGGCGGAUGCCUCCAAA [A12C G38C U49C C50A] | < 1e-05 | < 1e-05 | –
AUAAAAGCGCUAGAACUACAGAAAUGUAGUUGACGAGGAGGAGGUUUGUCGAAUUUUCGGCGGAUGCUUCCAAA [C11U A48G C68U] | < 1e-05 | – | –
AUAAAAGCGCCAGAACUACAGAAAUGUAGUUGACGAAGAGGAGGUUUAUCGAAUUUUCGGAGGAUGCCUUCAAA [G37A C61A C70U] | < 1e-05 | < 1e-05 | < 1e-05
AUAAAAGCGCCAGAACUACAGAAAUGUAGUUGACGAGGAGGGGGCUUAUCGAAUUUUCCGCUGAUGCUUCCAAA [A42G U45C G59C G62U C68U] | < 1e-05 | – | –
AUAAAAGCACCAGAACUACAGAAAUGUAGUUGACGAGGAGGAGGUUUAUCGAAUUUUCGGCGUAUGCCUUCAAA [G9A G63U C70U] | < 1e-05 | – | –
AUAAAAGCUCCAGCACUACAGAAAUGUAGUUGACGAGGAGGAGGUUUAUCGAAUUUUCGGCGGUUGCAUCCAAA [G9U A14C A64U C68A] | < 1e-05 | < 1e-05 | –
AUAAAAGCGCCAGAACUACAGAAAUGUAGUUGACGAGGUGGGGGUUUAUCGAAUUUUCGGCGGAGGCCUCCAAA [A39U A42G U65G] | 0.000684 ± 0.00016 | – | –
AUAAAAGCGCCAGAACUACAGAAAUGUAGUUGACGAGGAGGAGGUUUAUCUAAUUUUCGGCGAAUGCGUCCAAA [G51U G63A C68G] | 9.2e-05 ± 3e-05 | – | –
AUAAAAGCGCCAGAACUACAGAAAUGUAGUUGAUGAGGAGGAGGUUUAUCGAAUUUUCGGCGGUUCCCUCCAAA [C34U A64U G66C] | < 1e-05 | – | –
AUAAAAGCGCCUGAACUACAGAAAUGUAGUUGACGAGGAGGAGGUUUAUUGAAUUUUCUGCGGAUGCCUCCAAA [A12U C50U G59U] | < 1e-05 | < 1e-05 | < 1e-05
AUAAAAGCGCCAGAAGUACAGAAAUGUAGCUGACGAGGAGGAGGUUUAUUGAAUUUUCGGCGGAUGCCUCCAAA [C16G U30C C50U] | < 1e-05 | – | –
AUAAAAGCGCCAGAACUACAGAAAUGUAGUUGACGAGGAGGAGGUUUAUCGGAUUGUCGGCGGAUGCCUCCAAA [A52G U56G] | 0.000309 ± 5.9e-05 | 0.000536 ± 0.00011 | 0.0014 ± 0.00025
AUAAAAGCGCCAGAUCUACAGAAAUGUCGUUGUCGAGGAGGAGGUUUAUCGAAUUUUCGGCGGAUGCCUCCAAA [A15U A28C A33U] | < 1e-05 | – | –
AUAAAAGCGCCAGAACUACAGAAAUGUACUUGACGAGGGGGAGGUAUAUCGAAUUUUCGGCGGAGGCCUCCAAA [G29C A39G U46A U65G] | 0.000174 ± 6.2e-05 | 0.000622 ± 0.00019 | –
AUAAAAGCGCCAGAACUACAGAAAUGUAGUUAACGAGGAGGAGGUUUACGGAAUUUUCGGCGGAUGCCUCCAAA [G32A U49C C50G] | < 1e-05 | – | –
AUAAAACCGACAGAACUACAGAAAUGUAGUUGACGAGGAGGAGGUUUAUCGAAUUUUCGGCGGAUGCCUCAAAA [G7C C10A C71A] | < 1e-05 | – | –
